The data set can be described thus: label from the status in PepcDB records.
As for “MKPSHQQQKQASAAKDEKKDIIPLSAEKADGAEGWLNNSTILYTASNPTKTELFPYRIFTGKAKKLYQTDGQIVDVQINAREQMILLQITHSQKTAVVLLNAEGETLYEKDYETYELEAAWNQYDPYQMMVTEFNENWDFHTYQVNAKKDESFLSPVQVPFIHWTSKNTFDYVKEGRDDKTGPLYTFDTASKTEQKLEDNVLFFDSFHQMSFTVKSASGGKGTYQFKTPQSTSPVTAKWPLQAKYTSLAPMEYDYDEAGSLFYTFKQSGDAYKLAAINVASGETKDLVSLREMEPIQISPNGKYALYGFHFEQIILLKSHETKQLIIDQKEMELEHHHHHH”, the protein production result is recorded as “failed”.
The entry for “MKPSKYSVKAQGHGSSYMPMEVTLSKDKIEDINVDASGETRGVADEVFNRLPKLIVDNQTLNIDAVSGATISSHGVIDGVAQTINEAGGNSEEWKRRAKPRKVLLKKTKNMILMLEHHHHHH” is “not failed”; for “MKQARRHCWRRGIAATLIGGVISRRGTRASIGRDGLQLRFAALPWRTRCVAAAFCRFVKRSTRTPRARQESAVGLATLDIVIVLVYLTGIFVLAQWVSREKAGHSKSAEDYFLASKSLPWWAIGASLIAANISAEQIIGMAGSGYAIGLAIASYEWMAALTLLIVGKFFLPIFLRNGIYTMPQFLEQRYGKWIRTLMAVFWLLLYVFVNLTSILWLGSIAVSQVTGMDQTLALALIGVFALVYQLYGGLKAVALTDIVQVTLLVLGGLLVAALTLARIGDGAGVLEGFQHLWNAHPEHFHMILTKDNPFYKDLPGLSVLLGGLWVMNISYWGFNQYIIQRALAAKNIGEAQKGMVFAAFLKLLMPLVIVVPGIAAVVLAPDLAKPDQAYPTMMQLLPTGMLGLVFAALVAAIVASLASKINSVATIFTLDFYAKFRPQTEQKQLVRVGRIVAAVSVLIGILTARPLLGNFDQGFQFIQEFTGFFTPGVVVIFMLGLFWKRANEAGALTAAIGSVVLSFVLKFAWPELPFMDRIGVVFVAALMLAVLVSLLTPATQARDLIRTNEVAYGTTLSFKIGAAGVIAILIVLYTVFW” it is “failed”.
As for “MKQHILVLEDANQRRTIILDEQQYSIGRHSGTSIQIHSRQASRHHATLMRKTNSKTNEECFWIIDGDLEGNKSQNGVFVNGEKRLIHELKNGDLINFGCSINALEHHHHHH”, the protein production result is reported as “failed”.
As for “MKQKLLVTLLGLSALGASPVFAANTNVDLAEDAYIYGYSIDEAYKFFYHTAVENNYPLNEFQNRRALADDSYTAHPTINNDTLHLMGWLDVAAEPVIVSVPDMDEGRYWILHTMDMGHYTNAAFSSRTRGTKGGQFMFAAQDWQGEVPASVDEVVRVDSNLVKLMGRIMAVNDEDAKVALNYMDQWNIRTLSEYLGKNGPKPVQRTYPDPKKSTWLERVNFVLCDGSMGNADKQWLDKYQSIGVEPCKTDFTPEQLKLAKVGEKKGMEHLVELAPKMTDARTLLGTRDTLGDAPRDIFAEGTYLGQWGLPPIEASYRKSDFDSIGQKLDGSKHDYVMRFKAPNVSEFWSVTIYGNDNRLMAKNDLNRHSRGDRTMKADKDGYYTIYMSANEKGRADDPNFLPVPEKPFYAIMRFYGADDAIQSGEYQMPEIKVVKLEHHHHHH”, the protein production result is on record as “not failed”.
The result for “MKQKLLYLCLFVTLAVVGHSYIIYRFIHDGVLFTGPNDGMEQMVPIQMYLFDNWHHGNFFYASDFGLGGDFFSDLSYYFSTNIIFIINVIVIVLLKTFITLDTTHIMFWMTNALIVSIFKSAIAMLATYLYVRYIALNKKIAVLAAFIFVISPIYFRFTVYWPFFSDVFIWLPLLLWSIERFLKSGKIGFFIIIVAITLINNFYFAYYQLLTGLIYLTIRLVFRHQADIIPRFKSFMSLFIASVIGLGCSLPFFFPAIQSFFNNRRTPFDGNVDLFEPFNQNTNVFYDNYLIVILFITGQALLSFKLYKHYYFKLFAISTLILICASFVPFIDQIFNGFSAPQKRWHYLIAFNSAVLIGLYVKYFRTISIPNYIFSSVISLSIIGLSAWYYDDVVAWVWFAPIVSLIGFLILLINESHIKLKLTHLFVLSIMILTVLVSTVFIRNQIYFEDHVKRANAYFVNASLFNTPLQQQLVKDMNTHKLEDERIDWRVNEQDNTPMYQQFKGLSIYSSIFDHHILDFYYDELKINMQEESVSRYQSTNGRQNMSSLFSIKYLMVKRYQHNIPAYFKKIKNDGQYEIYENTLNLPSVRVSNKKYNSNDLHNPIDKEHAMMDGVILNNKGASYTAKAPNLLNQTRITYKDIDNKRNHQIHASKNDSHVQIHIPKHLRQRYHDFYLTIKVKRGLPDSNFSVQINNYTNNRLYNNSTYRTGVDTQLYRTQPDKNGNINVGLSPTGNYYLDIQSLHGENYNHLKSAYAKQNNDGHYTDIKNGVKVKLGPHEKGIATINIPYREGMTAYVDNKKIKPLNVNYMMTGVPVSKDSKEIIIKYRPKYWYTVTAISIIFIIGSLSWFMRKRYKNK” reads “failed”; that for “MKQLSFNKLYFEGIKDAIPISIGYLPIGMAFGVLAKSMGIPYEISILMSLIIFAGASQFVGVNLIAIGTSSFEIVLTTFILNLRHFLMSSSLSQRIDYTKSKKFLSLISFGVTDETFAVASLKEELKLSPEFLFGLNFTAFFAWNFGTVLGIFLAESIPKEIQSSMGISLYVMFIGLLIPAVRRSTKVLKIFLVAVFISSALTWVPVFKFISTGWIIIITTIVASFIGAKFIHGDGDE”, “failed”; that for “MKQNQYLFLLFTLIVLTGCGGTQKKLTEYVNPFLGTATLWEPEDLGYTRKIKSRTWGAETYPGATLPNAMVQLSPVTQFRSGAGYQYEDTVIYGFSHTAKGHWNLLHVPMLPVVGTIAPGNYCSGFSHEKESAHPGYYQVYLERYKVNAELTSTLRCAYHKYTFAKGDDKSLLVDIRRSNNDVRDWKIEKVDDNTFTGYQDGDGKIYFYAKTNYKIGQVEMVKDDKHEVAVLRFIDSKGVEPLEVKAGFSFVSIENAQMNLKAEMLNKSFAQVAEEADAAWEALLSKIQVAGGTEREKRLFYSTFFHAFKWPALRSDVNHEYTDVRGEVVNNGFHYYTDPSFWDDYRNKLVLIGMISPDVTTDIIRSIIDKGEKRDGYMPTFFHGDHASTFISGSWLRGLHDFDLERAYKLILKNATVPGKGGRRYLDEYMERGWIAEKDTVNVPTWDEYKGAVTKTQEYAYDDYAVALVAKELGDEANYKLMMERSNNYKTLFDPSTGFWRGKIDDGSWIQDFDPYYPYYQYMYREANAWNALFFAPHDPEGMIKLYPSKEAVEAKLDSLFSEPWRGYEAHNLTGFIGNYCHGNQPGHSIPYTYYFIDKQEKAQCILDSLMNHYYDMGADKLAYAGMDDAGEMSSWYVLNAIGLYTYSPADPEYIVTVPLFDKVTFNLNGRPFTIVKKGSGKKIIDITYDGKKIDGYFITHDQLREGKELVITTE”, “failed”.
As for “MKQPLRVLISCRPEENSGGKRSEQNDAVFEFAAWLARTSDINVRGITTFIRPWPSSSISKLGGKYHKWYKNLDSYYRSRTIKGLKEAGVEKSQWDDDVSVFVDGPSESTLLTHAAEEFEADLILLGSDATAPKGRFLASSTADALLHSSPVPLGLVPRGVKLSKKGVTRVNYAFTNESDDFEQGLRSSAELATNWNVPLRILAFSPTGITSAPTSRSLDISTELSSEWRELTLAMLDRARDGVLTDHPNLSVSSETGSGWGWSGAIDALRWKKGDLLCMGSHRTDTLSRVFVGSETMEIIRNSPVPTIIYPGL”, the protein production result is listed as “failed”.
The entry for “MKQPTLAVIMTCHNRRNTTLACLQALYQQKNHFDVYLTDDGSTDGTAEFIKAEYPDVKIFQGDGNLFWVGGMHLAFGEAIKNQYDYYLWLNDDTFLEADALEKLLQVHENLAVEGYGQSIVVGSTQDPITKQATYGGAVKSKKWYSNKFEFLEPTSDVQKCDAMYGNCVLIPHSVTLKVGNIDTAFIHSLGDLDYALRARNLGCHVWVAPGYIGTCNKNSVRNSWVDTKLPVLERLRKILQIKGFPLKPWTTFCSRHSGPFWIFYWFLPYIRAIIGYKNLATSPTFSEDPKETKPEV” is “failed”.
The result for “MKREEYLKNYLESYLRKKEVSLTEEEFNVILREFLRFAYNPEESGQEIADTADGSKTLIHKTYGEPYHSQTAGAIRESLYKFVRPSRILEKAKERKVIRILDVGFGLGYNLAVALKHLWEVNPKLRVEIISFEKELLKEFPILPEPYREIHEFLLERVPEYEGERLSLKVLLGDARKRIKEVENFKADAVFHDAFSPYKNPELWTLDFLSLIKERIDEKGYWVSYSSSLSVRKSLLTLGFKVGSSREIGRKRKGTVASLKAPVPPMEENEVRKLVLSPFAVPMRDEKLDKEPLEILIDYLLKVYKISR” reads “not failed”; that for “MKRFAFRVILHILLIVLFSIGSYLLFQKQLWFSTTICLILLITIGIHLYRMQFKQIALLRRLTDGLRYNDMMQTFHPPFNNKIMNEWAEELSDTLKDFRGRLLAEEIKHQYYENLLNKVDTAVLVADKAGHIEWMNQAAVTHLGQISQLPETLLKASVAHDTPVIRIEQNSTVLEMAISRTTFATQGREQQLISLKNIHSVLERNEMEAWQKLIRVLTHEIMNSITPIISLSETLSERGIPSQLGEKEYSVMLQAMQTIHRRSKGLLEFVENYRRLTRIPAPIRTQISIAELFTDLKKLFPEEEFQFEVPSPELKLNVDRTQIEQILINLLKNAREACSRKSDKKIQVKARKLSAGNTTLTISDNGEGILPDVLDKIFVPFFTTKTSGSGIGLSLCKQIMTLHEGSINVKSEVGKGSSFILTFPK”, “failed”.
With “MKRFVLLDTTAIPENGGALCLFEYGEDFVIKIQGGDGGQLMNTRMHGSEDALAQIPCSKVAGRPNSRVLIGGLGMGFTLAAALKHLGKSAKVVVAELVPGVVEWNRGPLGEKSGRPLLDPRTVIRLEDVAKVLQAEPQGFDAIMLDVDNGPEGLTQKANSWLYSSAGLAACARALRPKGILAVWSASADRQFSERLRKAGFKAEEVQVFAHGNRGTRHTIWIAEKLKA”, the protein production result is “failed”.
The result for “MKRIAFVGSVGAGKTTLFNALQGNYTLARKTLAVEFNDKGDIDTPGEYFSHPRWYHALITTLQDVDMLIYVHGANDPESRLPAGLLDIGVSKRQIAVISKTDMPDADVAATRKLLLETGFEEPIFELNSHDPQSVQQLVDYLASLTKQEEAGEKTHHSELEHHHHHH” reads “not failed”; that for “MKRIKTRAITLLALCIALNIVGSNIALMLKLPIYLDSIGTVLAAAVFGPLGGMLAGGATGVIVGATTDLYSLFFMPVQLLTGLVAGLLYRRIKPGTWRSNWWLAGVISLPGTLLSTAITVILFHGITSSGSSMLVQLLLGTGMGKTMAVFLIQVGTDYLDRFITVYVVALVYRALRYKLPQAN”, “failed”; that for “MKRKGVGFSLPVTVVMLVIGFIYFASVFTFIDRWFSLTSSPGIANAAAFTALALMCIYNYSIAVFRDPGRVPLNYMPDVEDPESPVHEIKRKGGDLRYCQKCSHFKPPRAHHCRVCKRCVLRMDHHCIWINNCVGHTNYKVFFVFVVYAVTACVYSLVLLVGSLTVEPQDEEEEMGSYLRTIYVISAFLLIPLSIALGVLLGWHIYLILQNKTTIEVYHEGVRAMWLAEKGGQVYKHPYDIGAYENLTLILGPNILSWLCPTSRHIGSGVRFRTAFDSIPDSSETKH”, “failed”.
The entry for “MKRKLIYLFIALAATILPAHAQKFLNDALTLSNVSLWQQGNSLYVGMTVDMANLTIGSARSLSLIPLLTDGQHNVPLQEIIVNGKRREKAYLRGLAISKQESTAIIVPYNKRETFNYTQVIPYQPWMANASLQLVENLCGCGNYQEMNAQELITNDVSTEAKRLSAMSPIVAYIQPTVEVVKNRSEQYEAHLDFPVNKSVILTDFMNNHSELVNIHSMFDKIQNDKNLTVQSISIEGFASPEGPLAFNEQLSKKRAEALKDYLVKNEKASAKLYKVTFGGENWDGLVKALESSSMKDKETFLNIIKNTTNDVKRKQEIMKVGGGAPYRTMLKEIYPGLRKVNCKIDYTVVNFDVEQGRIIIRENPKYLSLNEMYQVANSYPKGSKDFVDVFDIAVRMYPTDAVANLNAAAVALSQKDINTALKYMEKADHTTAEFLNNTGVYNFLNGDIQRATAAFEQAAKLGNEAAQANLKQLQQIMNMKMSK” is “failed”.

The record behind these values is a protein production outcome set (Wang et al. 2014).
